In patent US20190225682A1:

Target: cyno ST2L (cyno)
Experiment: affinity table, cyno ST2L; method not stated

koff: 0.00065 s⁻¹
B1: STLM107 (antibody, from another filing, V domains shown)
VH: EVQLLESGGGLVQPGGSLRLSCAASGFTFSDYAMFWVRQAPGKGLEWVSAIEGEGGETNYADSVKGRFTISRDNSKNTLYLQMNSLRAEDTAVYYCARDPWSTEGSFFVLDYWGQGTLVTVSS
VL: EIVLTQSPATLSLSPGERATLSCRASQSVDDDLAWYQQKPGQAPRLLIYDASNRATGIPARFSGSGSGTDFTLTISSLEPEDFAVYYCQQYIGAPITFGQGTKVEIK
